Source: patent US10023882B1, “Hetero-oligomers of (S)-carbonyl reductases and their applications in catalyzing reduction of polyphenyl ketones” (Jiangnan University, priority 2017, dated 2018)
Entries after “also recorded” stand apart in the source; their conditions may differ.

T1: His-SCR2, (S)-carbonyl reductase SCR2 of Candida parapsilosis with N-terminal His-tag, expressed from pET28-His-SCR2
T1 chain: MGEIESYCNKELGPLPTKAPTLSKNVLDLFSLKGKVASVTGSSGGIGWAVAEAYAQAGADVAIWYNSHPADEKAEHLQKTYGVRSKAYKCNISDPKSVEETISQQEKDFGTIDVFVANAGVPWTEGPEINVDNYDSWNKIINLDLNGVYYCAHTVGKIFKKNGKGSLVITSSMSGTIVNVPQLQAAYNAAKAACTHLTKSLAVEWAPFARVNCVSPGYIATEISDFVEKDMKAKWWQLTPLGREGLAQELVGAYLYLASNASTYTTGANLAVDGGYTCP

T2: His-SCR3, (S)-carbonyl reductase SCR3 of Candida parapsilosis with N-terminal His-tag, expressed from pET28-His-SCR3
T2 chain: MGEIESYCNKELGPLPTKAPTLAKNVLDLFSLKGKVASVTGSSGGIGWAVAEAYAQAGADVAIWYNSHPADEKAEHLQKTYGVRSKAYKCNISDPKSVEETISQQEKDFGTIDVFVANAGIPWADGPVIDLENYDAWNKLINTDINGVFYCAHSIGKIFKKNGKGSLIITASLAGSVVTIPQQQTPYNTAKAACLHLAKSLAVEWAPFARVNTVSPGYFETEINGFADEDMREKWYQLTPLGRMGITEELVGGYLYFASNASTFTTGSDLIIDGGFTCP

T3: SCR3, (S)-carbonyl reductase of Candida parapsilosis, as in the hetero-oligomer SCR/SCR3 (Candida parapsilosis, UniProt G8BHG5 1-279)
T3 sequence: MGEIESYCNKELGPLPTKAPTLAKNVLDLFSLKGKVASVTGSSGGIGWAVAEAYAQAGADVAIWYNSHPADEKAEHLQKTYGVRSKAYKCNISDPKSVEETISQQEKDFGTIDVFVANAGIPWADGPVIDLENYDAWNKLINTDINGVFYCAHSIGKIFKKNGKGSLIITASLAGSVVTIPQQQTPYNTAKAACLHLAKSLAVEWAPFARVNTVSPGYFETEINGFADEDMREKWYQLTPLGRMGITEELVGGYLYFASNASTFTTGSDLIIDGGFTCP

T4: SCR3, (S)-carbonyl reductase of Candida parapsilosis, as in the hetero-oligomer SCR/SCR3
T4 chain: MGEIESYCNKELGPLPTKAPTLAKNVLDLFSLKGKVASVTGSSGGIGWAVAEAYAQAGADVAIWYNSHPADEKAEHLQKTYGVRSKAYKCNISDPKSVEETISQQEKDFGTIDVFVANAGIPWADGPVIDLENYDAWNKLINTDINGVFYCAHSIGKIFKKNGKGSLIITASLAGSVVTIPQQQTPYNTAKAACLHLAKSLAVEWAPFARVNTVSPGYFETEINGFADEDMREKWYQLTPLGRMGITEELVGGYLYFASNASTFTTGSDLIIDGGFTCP


Assays:
[1] = target: T1, His-SCR2, (S)-carbonyl reductase SCR2 …
[2] = Reductive activity assay towards Keto Easter M (NADPH oxidation, absorbance at 340 nm); type: biochemical; conditions: purified enzyme, 0.5 mM NADPH, 1 mM substrate, 30° C.
Procedure: (§1) (1) Principle and definition: The enzyme activity for the reduction of prochiral ketones to chiral alcohols by homo-oligomers was determined with purified enzymes by measuring the decrease in absorbance at 340 nm resulting from the oxidation of NADPH. Protein concentration was determined by Beyotime (Shanghai, China) using bovine serum albumin as a standard.
(§2) (2) Enzyme activity assay conditions (250 ul): 0.5 mmol·L^−1 NADPH, 1 mmol·L^−1 substrate (2,4-dichlorobenzophenone, 2-naphthyl ketone, or [(E)-2-[3-[3-[2-(7-chloro-2-quinolinyl)ethenyl]phenyl]-3-oxopropyl]benzoic acid methyl ester (Keto Easter M).). Incubate the mixture at 30° C. for 2 min, then add appropriate amount of enzyme, and finally measure the absorbance at 340 nm wavelength.
(§3) Formula for calculating enzyme activity is: Enzyme activity (U)=EW×V×10^3/(6220×0.15), and formula for calculating relative enzyme activity is: relative enzyme activity (U/mg)=enzyme activity (U)/protein content (mg), wherein EW is the measured change of absorbance at 340 nm in 1 min; V is the reaction volume (mL); the molar absorption coefficient (L mol^−1 cm^−1) is 6220; and the optical length is 0.15 cm.
(§4) One unit of the enzyme activity is defined as the amount of enzyme catalyzing the formation and oxidation of 1 μmol of NAD(P)H per minute under measurement conditions.
Enzyme activity assay system (250 ul) contained 0.5 mM NADPH, 1 mM substrate (i.e. [(E)-2-[3-[3-[2-(7-chloro-2-quinolinyl)ethenyl]phenyl]-3-oxopropyl]benzoic acid methyl ester (Keto Easter M) and appropriate amount of enzyme. The reaction mixture was incubated at 30° C. for 2 min, the appropriate amount of enzyme was added, and finally the absorption change was scanned at 340 nm wavelength. The calculated relative enzyme activity of SCR/SCR2 and SCR2/SCR3 were 0.86 U/mg and 1.21 U/mg towards [(E)-2-[3-[3-[2-(7-chloro-2-quinolinyl)ethenyl]phenyl]-3-oxopropyl]benzoic acid methyl ester (Keto Easter M), respectively.

[3] = target: T2, His-SCR3, (S)-carbonyl reductase SCR3 …
[4] = Reductive activity assay towards 2-acetonaphthone (NADPH oxidation, absorbance at 340 nm); type: biochemical; conditions: purified enzyme, 0.5 mM NADPH, 1 mM substrate, 30° C.
Procedure: as §1, §2, §3, §4
(§5) Enzyme activity assay system (250 ul) contained 0.5 mM NADPH, 1 mM substrate (i.e. 2-acetonaphthone) and appropriate amount of enzyme. The reaction mixture was incubated at 30° C. for 2 min, the appropriate amount of enzyme was added, and finally the absorption change was scanned at 340 nm wavelength. The calculated relative enzyme activity of SCR/SCR2 was 2.43 U/mg towards 2-acetonaphthone.

[5] = Reductive activity assay towards 2,4-dichlorobenzophenone (NADPH oxidation, absorbance at 340 nm); type: biochemical; conditions: purified enzyme, 0.5 mM NADPH, 1 mM substrate, 30° C.
Procedure: as §1, §2, §3, §4
as §5, with “2,4-dichlorobenzophenone)” for “2-acetonaphthone)”, “and SCR2/SCR3 were 4.55 U/mg and 4.42” for “was 2.43”, “2,4-dichlorobenzophenone, respectively.” for “2-acetonaphthone.”

[6] = target: T3, SCR3, (S)-carbonyl reductase of Candida …; experiment: method not described for this pair
[7] = target: T4, SCR3, (S)-carbonyl reductase of Candida …

| Molecule | relative enzyme activity (specific activity) towards Keto Easter M [2] | relative enzyme activity (specific activity) towards 2-acetonaphthone [4] | relative enzyme activity (specific activity) towards 2,4-dichlorobenzophenone [5] | other results |
| --- | --- | --- | --- | --- |
| Strep-SCR, (S)-carbonyl reductase SCR of Candida parapsilosis with N-terminal Strep-tag, expressed from pET21-Strep-SCR (protein) MGEIESYCNKELGPLPTKAPTLSKNVLDLFSLKGKVASVTGSSGGIGWAVAEAYAQAGADVAIWYNSHPADEKAEHLQKTYGVHSKAYKCNISDPKSVEETISQQEKDFGTIDVFVANAGVTWTQGPEIDVDNYDSWNKIISVDLNGVYYCSHNIGKIFKKNGKGSLIITSSISGKIVNIPQLQAPYNTAKAACTHLAKSLAIEWAPFARVNTISPGYIDTDITDFASKDMKAKWWQLTPLGREGLTQELVGGYLYLASNASTFTTGSDVVIDGGYTCP |  |  |  | relative enzyme activity towards 2,4-dichlorobenzophenone [1]: 4.55 U/mg; relative enzyme activity towards 2-acetonaphthone [1]: 2.43 U/mg; relative enzyme activity towards [(E)-2-[3-[3-[2-(7-chloro-2-quinolinyl)ethenyl]phenyl]-3-oxopropyl]benzoic acid methyl ester (Keto Easter M) [1]: 0.86 U/mg |
| Strep-SCR2, (S)-carbonyl reductase SCR2 of Candida parapsilosis with N-terminal Strep-tag, expressed from pET21-Strep-SCR2 (protein) MGEIESYCNKELGPLPTKAPTLSKNVLDLFSLKGKVASVTGSSGGIGWAVAEAYAQAGADVAIWYNSHPADEKAEHLQKTYGVRSKAYKCNISDPKSVEETISQQEKDFGTIDVFVANAGVPWTEGPEINVDNYDSWNKIINLDLNGVYYCAHTVGKIFKKNGKGSLVITSSMSGTIVNVPQLQAAYNAAKAACTHLTKSLAVEWAPFARVNCVSPGYIATEISDFVEKDMKAKWWQLTPLGREGLAQELVGAYLYLASNASTYTTGANLAVDGGYTCP | no specific activity is observed; also recorded: no enzyme activities were detected | no specific activity is observed; also recorded: no enzyme activities were detected | no specific activity is observed; also recorded: no enzyme activities were detected | relative enzyme activity towards 2,4-dichlorobenzophenone [3]: 4.42 U/mg; relative enzyme activity towards [(E)-2-[3-[3-[2-(7-chloro-2-quinolinyl)ethenyl]phenyl]-3-oxopropyl]benzoic acid methyl ester (Keto Easter M) [3]: 1.21 U/mg |
| SCR, (S)-carbonyl reductase of Candida parapsilosis, as in the hetero-oligomer SCR/SCR3 (enzyme) MGEIESYCNKELGPLPTKAPTLSKNVLDLFSLKGKVASVTGSSGGIGWAVAEAYAQAGADVAIWYNSHPADEKAEHLQKTYGVHSKAYKCNISDPKSVEETISQQEKDFGTIDVFVANAGVTWTQGPEIDVDNYDSWNKIISVDLNGVYYCSHNIGKIFKKNGKGSLIITSSISGKIVNIPQLQAPYNTAKAACTHLAKSLAIEWAPFARVNTISPGYIDTDITDFASKDMKAKWWQLTPLGREGLTQELVGGYLYLASNASTFTTGSDVVIDGGYTCP |  |  |  | binding result [6]: binds; activities to polyphenyl ketones [7]: also showed some activities to polyphenyl ketones |
| SCR: homo-oligomer (S)-carbonyl reductase from Candida parapsilosis, amino acid sequence SEQ ID NO: 1 (protein, listed as Candida parapsilosis) MGEIESYCNKELGPLPTKAPTLSKNVLDLFSLKGKVASVTGSSGGIGWAVAEAYAQAGADVAIWYNSHPADEKAEHLQKTYGVHSKAYKCNISDPKSVEETISQQEKDFGTIDVFVANAGVTWTQGPEIDVDNYDSWNKIISVDLNGVYYCSHNIGKIFKKNGKGSLIITSSISGKIVNIPQLQAPYNTAKAACTHLAKSLAIEWAPFARVNTISPGYIDTDITDFASKDMKAKWWQLTPLGREGLTQELVGGYLYLASNASTFTTGSDVVIDGGYTCP | no specific activity is observed; also recorded: no enzyme activities were detected | no specific activity is observed; also recorded: no enzyme activities were detected | no specific activity is observed; also recorded: no enzyme activities were detected |  |
| SCR3: homo-oligomer (S)-carbonyl reductase from Candida parapsilosis, amino acid sequence SEQ ID NO: 3 (protein, listed as Candida parapsilosis) MGEIESYCNKELGPLPTKAPTLAKNVLDLFSLKGKVASVTGSSGGIGWAVAEAYAQAGADVAIWYNSHPADEKAEHLQKTYGVRSKAYKCNISDPKSVEETISQQEKDFGTIDVFVANAGIPWADGPVIDLENYDAWNKLINTDINGVFYCAHSIGKIFKKNGKGSLIITASLAGSVVTIPQQQTPYNTAKAACLHLAKSLAVEWAPFARVNTVSPGYFETEINGFADEDMREKWYQLTPLGRMGITEELVGGYLYFASNASTFTTGSDLIIDGGFTCP | no specific activity is observed; also recorded: no enzyme activities were detected | no specific activity is observed; also recorded: no enzyme activities were detected | no specific activity is observed; also recorded: no enzyme activities were detected |  |
